The data set has as its system eIF4G HEAT1 domain. The experiment in a line: MST.

As a reminder, the Kd is the equilibrium constant for the complex coming apart. Low values mean higher affinity, high ones lower affinity. In turn, 5'tiRNAAla displayed a dissociation constant Kd of 410 nM.

The values are drawn from PMC7293036.
